The record followed here is patent publication US20190256588A1 (BEIJING HANMI PHARM, published 2019).

Assay [1] addresses T1, recombinant human IL-17A (human, UniProt Q16552 24-155).
T1 construct: also called IL-17A antigen
Put plainly: ELISA, recombinant human IL-17A coated on the plate, HRP anti-human IgG, OD450nm. The protocol:
Recombinant human IL-17A, monkey IL-17A, rat IL-17A and mouse IL-17A (all purchased from Sino Biological Inc.), were coated on a 96-well high-absorbing ELISA plate with a carbonate buffer solution with pH 9.6, the coating concentration was […], the coating amount was 100 μL per well, and the coating was carried out at 4° C. overnight. The plate was washed five times with PBST and blocked with 300 μL/well of PBST containing 1% BSA, and then incubated at 25° C. for 1 hour. The plate was washed five times with PBST. […] The plate was washed five times with PBST. Then, horseradish peroxidase-labeled anti-human IgG antibody (Chemicon, Catalog Number AP309P) 1:2000 diluted in PBST containing 1% BSA was added, 100 μL per well, incubated at 25° C. for 1 hour. The plate was washed five times with PBST. 100 μL/well of colorimetric substrate TMB was added and incubated at room temperature for 10 minutes. Color development was terminated by adding 100 μL/well of 1 M H₂SO₄. The absorbance at 450 nm was read on a microplate reader.
(ELISA stands for enzyme-linked immunosorbent assay.)

Assay [2] deals with T2, recombinant human IL-17F (human, UniProt Q96PD4 31-163).
T2 sequence (looked up): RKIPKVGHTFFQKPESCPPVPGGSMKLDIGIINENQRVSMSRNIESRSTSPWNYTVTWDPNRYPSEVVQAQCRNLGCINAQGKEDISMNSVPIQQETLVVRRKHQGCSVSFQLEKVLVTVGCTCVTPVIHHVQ
Put plainly: ELISA, cytokine coated on plate at 1 µg/mL. The protocol:
(§1) Recombinant human IL-17A, IL-17B, IL-17C, IL-17D, IL-17E, IL-17F, IL-1, IL-2, IL-6, IL-8, IL-21, IL-22, IL-23, IFN-g and TNFα (purchased from Sino Biological Inc. or R&D systems) were coated on a 96-well high-absorbing ELISA plate with a carbonate buffer solution with pH 9.6, the coating concentration was 1 μg/mL, the coating amount was 100 μL per well, and the coating was carried ax 4° C. out overnight. The plate was washed five times with PBST and blocked with 300 μL/well of PBST containing 1% BSA and incubated at 25° C. for 1 hour. The plate was washed five times with PBST. […] The plate was washed five times with PBST. Then, horseradish peroxidase-labeled anti-human IgG antibody (Chemicon, Catalog Number AP309P) 1:2000 diluted in PBST containing 1% BSA was added, 100 μL was added to each well, incubated at 25° C. for 1 hour. The plate was washed five times with PBST. 100 μL/well of colorimetric substrate TMB was added and incubated at room temperature for 10 minutes. Color development was terminated by adding 100 μL/well of 1 M H₂SO₄. The absorbance at 450 nm was read on a microplate reader.
(§2) Recombinant human IL-17A, IL-17B, IL-17C, IL-17D, IL-17E, IL-17F, IL-1, IL-2, IL-6, IL-8, IL-21, IL-22, IL-23, IFN-g and TNFα (purchased from Sino Biological Inc. or R&D systems) were coated on a 96-well high-absorbing ELISA plate with a carbonate buffer solution with pH 9.6, the coating concentration was 1 μg/mL, the coating amount was 100 μL per well, and the coating was carried at 4° C. out overnight. Washed five times with PBST. Blocked with 300 μL/well of PBST containing 1% BSA and incubated at 25° C. for 1 hour. Washed five times with PBST.

Assay [3] addresses T3, recombinant human IL-17E (human, UniProt Q9H293 33-177).
T3 sequence (looked up): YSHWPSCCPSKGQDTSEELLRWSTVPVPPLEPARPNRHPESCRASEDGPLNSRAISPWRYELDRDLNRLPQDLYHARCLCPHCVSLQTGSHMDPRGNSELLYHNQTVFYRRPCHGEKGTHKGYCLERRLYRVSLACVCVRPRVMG
The assay is described as follows: ELISA, cytokine coated on plate at 1 µg/mL. The protocol: as §1, §2

For assay [4], the target named is recombinant human IL-21 (human, UniProt Q9HBE4 32-162, limits assumed). The assay is described as follows: ELISA, cytokine coated on plate at 1 µg/mL. The protocol:
as §1, §2

For assay [5], the target named is T4, recombinant human IL-22 (human, UniProt Q9GZX6 34-179).
T4 sequence (looked up): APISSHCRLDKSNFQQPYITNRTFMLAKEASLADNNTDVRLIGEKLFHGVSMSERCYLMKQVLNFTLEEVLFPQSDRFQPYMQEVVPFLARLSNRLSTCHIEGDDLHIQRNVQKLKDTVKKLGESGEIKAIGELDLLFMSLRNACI
The assay is described as follows: ELISA, cytokine coated on plate at 1 µg/mL. The protocol:
as §1, §2

In assay [6] the target is T5, recombinant human IL-17B (human, UniProt Q9UHF5 21-180).
T5 sequence (looked up): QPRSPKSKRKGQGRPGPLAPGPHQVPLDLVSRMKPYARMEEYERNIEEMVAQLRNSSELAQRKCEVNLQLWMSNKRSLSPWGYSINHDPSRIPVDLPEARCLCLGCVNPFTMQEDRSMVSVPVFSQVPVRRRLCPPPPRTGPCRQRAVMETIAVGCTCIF
Put plainly: ELISA, cytokine coated on plate at 1 µg/mL. The protocol:
as §1, §2

Assay [7] deals with T6, recombinant human IL-17C (human, UniProt Q9P0M4 19-197).
T6 sequence (looked up): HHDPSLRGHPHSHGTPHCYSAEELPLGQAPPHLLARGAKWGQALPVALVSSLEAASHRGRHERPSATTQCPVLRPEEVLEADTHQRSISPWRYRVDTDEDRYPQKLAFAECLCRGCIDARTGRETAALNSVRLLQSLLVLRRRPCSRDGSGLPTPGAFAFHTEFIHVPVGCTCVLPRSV
The assay is described as follows: ELISA, cytokine coated on plate at 1 µg/mL. The protocol: as §1, §2

The target in assay [8] is recombinant human IL-6 (human, UniProt P05231 30-212). Put plainly: ELISA, cytokine coated on plate at 1 µg/mL. The protocol: as §1, §2
Chain of recombinant human IL-6 (P05231 30-212 limits assumed): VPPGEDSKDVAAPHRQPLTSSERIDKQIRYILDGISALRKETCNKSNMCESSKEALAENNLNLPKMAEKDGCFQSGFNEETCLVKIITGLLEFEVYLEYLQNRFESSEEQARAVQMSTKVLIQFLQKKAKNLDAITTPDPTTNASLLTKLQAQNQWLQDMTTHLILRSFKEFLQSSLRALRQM
Assay [9] has as its target T7, recombinant human IL-17D (human, UniProt Q8TAD2 16-202, limits assumed).
T7 sequence (looked up): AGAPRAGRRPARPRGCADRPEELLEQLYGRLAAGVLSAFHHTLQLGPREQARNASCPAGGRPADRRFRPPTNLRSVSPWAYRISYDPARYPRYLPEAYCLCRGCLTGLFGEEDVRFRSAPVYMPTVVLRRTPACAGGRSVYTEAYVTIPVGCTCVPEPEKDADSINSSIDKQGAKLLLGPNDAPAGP
The assay is described as follows: ELISA, cytokine coated on plate at 1 µg/mL. The protocol: as §1, §2

T1 sequence (Q16552 24-155 limits assumed): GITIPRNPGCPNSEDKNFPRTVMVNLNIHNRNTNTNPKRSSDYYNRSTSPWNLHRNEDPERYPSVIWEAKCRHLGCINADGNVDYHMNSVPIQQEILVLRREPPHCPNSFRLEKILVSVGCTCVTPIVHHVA
Chain of recombinant human IL-21 (Q9HBE4 32-162 limits assumed): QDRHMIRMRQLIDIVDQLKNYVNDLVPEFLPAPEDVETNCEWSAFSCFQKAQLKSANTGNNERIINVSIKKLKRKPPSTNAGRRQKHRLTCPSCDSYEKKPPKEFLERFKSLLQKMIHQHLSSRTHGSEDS

B1: anti-human IL-17A chimeric monoclonal antibody (antibody, human IgG1, kappa, V domains shown)
VH: DVQVQESGPGLVKPSQSLSLTCTVTGNSITSYYAWNWIRQFPGNKLEWMGYITYSGTTSYNPSLKSRISITRDTSKNQFFLQLNSVTTEDTATYYCAREEYDDIYAVDYWGQGTSVTVSS
VL: IIVMTQTPLSLPVSLGDQASISCRSSQSLVHSNGNTYLHWYLQKPGQSPKLLIYKVYNRFSGVPDRFSGSGSGTDFTLKISRVEAEDLGVYFCSQSTHFPTFGGGTKLEIKR
notes: expressed in 293F cells; also called Anti-human IL-17A Chimeric Antibody; chimeric anti-human IL-17A monoclonal antibody
Turning to B1, the concentration giving a half-maximal response (EC50) (commonly the midpoint of the concentration-response curve) in [1] is 0.07 nM. The binding result in [2], in [3], in [4], in [5], in assay [6] and in assay [7] was “no binding” each time. The binding result in assay [8] and in assay [9] was “no binding” each time.
